Experimental data published in the supplement of paper PMC9732359.
± gives the uncertainty stated by the source.

Assay: protein stability index of a GFP-peptide fusion (yeast GPS) (PSI 1-4); higher = more stable; sorted into four equal gates, so the index is relative within each strain
Settings: ubr1∆
In short: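 For each peptide, the protein stability index sums the read frequency in every gate after multiplying it by the gate number. Read frequencies came from plasmids that were PCR-amplified from each gate and Illumina-sequenced, with reads assigned to strains by barcodes. The gates were four equal bins of GFP/Cherry fluorescence ratio applied to mid-log yeast in leucine-free medium carrying a pooled library of tiled 17-residue yeast protein peptides fused downstream of GFP on a Cherry-expressing plasmid.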

Row | Sequence | protein stability index
1 | RSMSGQPPTNVQPTIGQ [SNF5] | 3.15 ± 0.036
2 | RSPPRPPSLKIIDGPKA [PRP28] | 1.74 ± 0.041
3 | RSVDRAGRKFKSRRCDD [POP4] | 3.18 ± 0.075
4 | RSVRIPWYNNPVSCIIQ [PRP8] | 2.55 ± 0.06
5 | RTNNVPMIKAEETPSKT [NUT1] | 2.66 ± 0.078
6 | RTPDSISVNSSSFSLTF [POP1] | 2.37 ± 0.038
7 | RVAASFSQEALQYVVER [FAS1] | 1.14 ± 0.089
8 | RVASDTVHEMEEELKKL [SMC4] | 3.63 ± 0.19
9 | RVGVVSILEAGDSDILT [RPL30] | 3.03 ± 0.058
10 | RVHANLQCISQINQGVP [SNF11] | 1.89 ± 0.055
11 | RVHRLLRRGNYAQRIGS [HTA1] | 2.74 ± 0.24
12 | RVKAMEVDEKPTETYSD [RPT5] | 3.12 ± 0.077
13 | RVNGSEFVHKYLGEGPR [RPT3] | 3 ± 0.061
14 | RVPIRSEYKVAFPHLYN [PRP8] | 2.08 ± 0.041
15 | RVQVGDIVTVGQCRPIS [RPS11A] | 3.23 ± 0.074
16 | RVVRPKSLDAETEAEED [RPO21] | 1.31 ± 0.29
17 | RVVYLKHLEDNTLLVTG [RPL6B] | 1.16 ± 0.2
18 | RWEMEAFGEFSLEGCVE [FAS2] | 2.83 ± 0.14
19 | RYENNDDDERVEYNLFT [BRN1] | 3.04 ± 0.043
20 | RYISTLTLYLFQDYLTQ [IRR1] | 3.38 ± 0.27
21 | RYLVGGNKIQKVLLDSK [RPS7A] | 1.7 ± 0.17
22 | RYNAKAIGSGSEGAQAE [PUP2] | 2.98 ± 0.075
23 | RYSMSEQFPFYLHDNAS [IRR1] | 3.03 ± 0.042
24 | RYWVQKERSDGKRHIFD [CDC53] | 2.91 ± 0.14
25 | SAAAAGNRNSSSVFLPS [BRR2] | 3.15 ± 0.059

Row | Sequence | protein stability index
26 | SAARGLSLVYEIGGSDL [ECM29] | 1.73 ± 0.056
27 | SAGAVFKSSVEMGKTDK [YOR098C/NUP1] | 3.47 ± 0.047
28 | SAGFETDLRLSTNGLGM [SNU114] | 3.13 ± 0.22
29 | SAGLDSAQQNLASSFVN [RPN1] | 3.2 ± 0.2
30 | SAHQSPIMQTQMPLNSN [SNF2] | 2.17 ± 0.053
31 | SAIRKCVRVQLIKNGKK [RPS23A] | 3.19 ± 0.095
32 | SALWSSRKGIAFGLGAI [ECM29] | 2.55 ± 0.089
33 | SAPKISSEIDRENVKSK [SIR4] | 3.35 ± 0.15
34 | SARNYDKFKLNENDLKT [SMC1] | 2.53 ± 0.063
35 | SARSSVHESLVTQSNIL [SRB8] | 2.83 ± 0.086
36 | SASLHTRSLKYGKLRNG [RRP4] | 2.82 ± 0.16
37 | SASPHLAPNMQLNGNET [SNF2] | 3.256 ± 0.032
38 | SASVRALIENWAADSVS [FAS1] | 2.76 ± 0.091
39 | SAVKPRPLKLERGFACI [FAS1] | 2.42 ± 0.071
40 | SDDIISQVDPITLFVLV [FAS2] | 1.23 ± 0.064
41 | SDDYDNEGAASSNPQSA [SMC1] | 3.13 ± 0.051
42 | SDFTFPEYYSTARVMGG [DIS3] | 1.38 ± 0.13
43 | SDIPVSENVFEGLTYKY [SSN3] | 1.98 ± 0.042
44 | SDNNSRIMSRNFYLKRF [SWI1] | 3.09 ± 0.063
45 | SDSSSEDEVKVEGPKFT [YLR335W/NUP2] | 3.44 ± 0.16
46 | SDVLFEFTKINTPLVGA [YJL039C/NUP192] | 1.47 ± 0.037
47 | SDVLRFLQRVRVWEYRQ [RPL15A] | 2.01 ± 0.054
48 | SEAKRTKFSNPAIPPVI [BRR2] | 2.44 ± 0.056
49 | SECIVSIKSKVVDHHVE [RRP42] | 3.04 ± 0.067
50 | SEDSAVFKATSSTDEES [FAS1] | 2.98 ± 0.067

Row | Sequence | protein stability index
51 | SEEEEDEEENGSSDEDL [SSN2] | 3.32 ± 0.17
52 | SEEIDSLNEDVEEIKLQ [SMC2] | 3.25 ± 0.077
53 | SEHFDVNDNPDIEAGDD [DIS3] | 3.08 ± 0.045
54 | SEISSLKGKINNEMKSL [SMC1] | 3.18 ± 0.18
55 | SELFDEWFEQNNSEQDQ [ISW2] | 1.95 ± 0.051
56 | SELPDIYSRDIGAELKR [SNF2] | 3.41 ± 0.18
57 | SENHTESDAPPKSTAPI [YOR098C/NUP1] | 2.47 ± 0.06
58 | SEPIDLIIIEKKQKLIE [ITC1] | 2.69 ± 0.13
59 | SEPIKEIIDNWEKYEQS [FAS1] | 2.96 ± 0.059
60 | SESQLNSTLKKVESQET [YCS4] | 3.04 ± 0.29
61 | SETDKRQFLHELRRPGV [RPO31] | 1.57 ± 0.069
62 | SETFLQFYVKRWKRFTI [CDC53] | 2.3 ± 0.074
63 | SFEETVEILFEAGASAE [RPO21] | 2.51 ± 0.093
64 | SFGKIYVTKPMVNESDG [RPB2] | 3.26 ± 0.24
65 | SFGSKPTGKEEGDGAKA [YJL041W/NSP1] | 3.21 ± 0.083
66 | SFIFQYYGLVIDLLLLG [PRP8] | 1.24 ± 0.05
67 | SFKYLSNNDEDDKDCTI [RGR1] | 2.62 ± 0.034
68 | SFLFDVLKTLEYKLATY [NUT1] | 2.03 ± 0.074
69 | SFLFSAIPLQQVLSQSA [SWI1] | 1.39 ± 0.034
70 | SFLSGVKSLLSEEKIRD [SIR4] | 2.92 ± 0.11
71 | SFNMAQIPQQLYQSLTP [SNF5] | 2.12 ± 0.047
72 | SFSFGAPESMKSTASTA [YOR098C/NUP1] | 3.12 ± 0.053
73 | SFVKETKLHSGDYGEEE [SRB8] | 3.44 ± 0.1
74 | SGAITFVNETPRVIEPV [PRP8] | 1.11 ± 0.045
75 | SGDSGVYTLACRSCPYE [RPC11] | 1.26 ± 0.15

Row | Sequence | protein stability index
76 | SGKETASAPLCSPKLPV [DLS1] | 3.14 ± 0.034
77 | SGNNNGGFTNLTSQAPQ [YDL088C/ASM4] | 3.29 ± 0.042
78 | SGNNSKKRKNKSSGSSM [ROX3] | 3.17 ± 0.068
79 | SGNNYNDINISSIENNI [MED2] | 3.151 ± 0.031
80 | SGQFYFRNPTPLLSNYA [RGR1] | 1.89 ± 0.044
81 | SGSAGANPAGASQPEPT [YJL041W/NSP1] | 3.15 ± 0.1
82 | SGSLFGSNNAQTSRGLF [YGL172W/NUP49] | 2.84 ± 0.064
83 | SGSQNISEFDSFTDILK [RPN12] | 3.03 ± 0.066
84 | SGTPITQTESKKEENET [SNF2] | 2.82 ± 0.036
85 | SGYGKRKGTREARLPSQ [RPL19A] | 3.49 ± 0.26
86 | SHDASRSLASFEQTAFS [SIR4] | 2.67 ± 0.067
87 | SIDCLLILILVISFGQP [SWI1] | 1.59 ± 0.029
88 | SIDPPGCVDIDDALHAK [DIS3] | 3.31 ± 0.06
89 | SIGEPATQMTLNTFHFA [RPO21] | 2.75 ± 0.12
90 | SIKDTQNVGQGKLQRKE [BRN1] | 2.7 ± 0.049
91 | SIQMEFMLRKQDPKTLV [SSN2] | 2.05 ± 0.045
92 | SIREDILECDLLICIGT [SIR2] | 2.39 ± 0.052
93 | SIREQVHMYHKSLALLG [SNF5] | 2.06 ± 0.045
94 | SIWGNGYSGYGNGITNT [SNF5] | 3.34 ± 0.051
95 | SKFYNMKQPYVFVKKHH [SSN2] | 1.28 ± 0.044
96 | SKHNERNKSAANNDINS [YDL088C/ASM4] | 2.85 ± 0.12
97 | SKISFIDEDKLYPSFKP [SSN2] | 2.54 ± 0.081
